{"source": "paper PMC2191818", "target": "HLA-B*0702 class I heavy chain (free heavy chain, C1R transfectant B7C1R) (human)", "assay": "nonreducing SDS-PAGE of immunoprecipitates", "data": [{"substance": "HLA-B*0702 class I heavy chain (free heavy chain, C1R transfectant B7C1R) (natural protein)", "values": [{"measurement": "stoichiometry N", "value": 2}]}]}
